Experiments:
HeLa Kyoto [1] = assay: solubility change mitosis vs G1/S (difference of NP-40 vs SDS log2 ratios) (log2 ratio difference); higher = more soluble in mitosis
HeLa Kyoto [2] = assay: melting temperature (median over replicates), in situ; higher = more thermally stable
HeLa Kyoto [3] = assay: solubility in G1/S (NP-40 vs SDS abundance) (log2 ratio); higher = more soluble; conditions: cell cycle stage: G1/S
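Throughout, for melting temperature (median over replicates), in situ: HeLa Kyoto cells synchronized by double thymidine or nocodazole block, proteins quantified by TMT10plex mass spectrometry, three independent biological replicates.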
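Throughout, for solubility change mitosis vs G1/S (difference of NP-40 vs SDS log2 ratios): synchronized HeLa Kyoto cells (double thymidine block for G1/S, nocodazole release for mitosis), protein amounts in NP-40 versus SDS lysates quantified by mass spectrometry, three biological replicates.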
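Throughout, for solubility in G1/S (NP-40 vs SDS abundance): HeLa Kyoto cells arrested at G1/S by double thymidine block, proteins quantified by TMT10plex mass spectrometry in mild NP-40 versus SDS extracts, three biological replicates.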

Row | Sequence | solubility change mitosis (log2) (HeLa Kyoto [1]) | melting temperature (HeLa Kyoto [2]; cell cycle stage: mitosis) | solubility in G1/S (log2) (HeLa Kyoto [3]) | melting temperature (HeLa Kyoto [2]; cell cycle stage: G1/S)
1 | MNSVRAANRRPRRVSRPRPVQQQQQQPPQQPPPQPPQQQPPQQQPPPPPQQQQQQQPPPPPPPPPPLPQERNNVGERDDDVPADMVAEESGPGAQNSPYQLRRKTLLPKRTACPTKNSMEGASTSTTENFGHRAKRARVSGKSQDLSAAPAEQYLQEKLPDEVVLKIFSYLLEQDLCRAACVCKRFSELANDPILWKRLYMEVFEYTRPMMHPEPGKFYQINPEEYEHPNPWKESFQQLYKGAHVKPGFAEHFYSNPARYKGRENMLYYDTIEDALGGVQEAHFDGLIFVHSGIYTDEWIYIESPITMIGAAPGKVADKVIIENTRDSTFVFMEGSEDAYVGYMTIRFNPDDKSAQHHNAHHCLEITVNCSPIIDHCIIRSTCTVGSAVCVSGQGACPTIKHCNISDCENVGLYITDHAQGIYEDNEISNNALAGIWVKNHGNPIIRRNHIHHGRDVGVFTFDHGMGYFESCNIHRNRIAGFEVKAYANPTVVRCEIHHGQTGGIYVHEKGRGQFIENKIYANNFAGVWITSNSDPTIRGNSIFNGNQGGVYIFGDGRGLIEGNDIYGNALAGIQIRTNSCPIVRHNKIHDGQHGGIYVHEKGQGVIEENEVYSNTLAGVWVTTGSTPVLRRNRIHSGKQVGVYFYDNGHGVLEDNDIYNHMYSGVQIRTGSNPKIRRNKIWGGQNGGILVYNSGLGCIEDNEIFDNAMAGVWIKTDSNPTLRRNKIHDGRDGGICIFNGGRGLLEENDIFRNAQAGVLISTNSHPILRKNRIFDGFAAGIEITNHATATLEGNQIFNNRFGGLFLASGVNVTMKDNKIMNNQDAIEKAVSRGQCLYKISSYTSYPMHDFYRCHTCNTTDRNAICVNCIKKCHQGHDVEFIRHDRFFCDCGAGTLSNPCTLAGEPTHDTDTLYDSAPPIESNTLQHN [FBXO11] | 0.764 | 52.6 °C | -1.25 | 
2 | MPVVWPTLLDLSRDECKRILRKLELEAYAGVISALRAQGDLTKEKKDLLGELSKVLSISTERHRAEVRRAVNDERLTTIAHNMSGPNSSSEWSIEGRRLVPLMPRLVPQTAFTVTANAVANAAIQHNASLPVPAETGSKEVVCYSYTSTTSTPTSTPVPSGSIATVKSPRPASPASNVVVLPSGSTVYVKSVSCSDEDEKPRKRRRTNSSSSSPVVLKEVPKAVVPVSKTITVPVSGSPKMSNIMQSIANSLPPHMSPVKITFTKPSTQTTNTTTQKVIIVTTSPSSTFVPNILSKSHNYAAVTKLVPTSVIASTTQKPPVVITASQSSLVSNSSSGSSSSTPSPIPNTVAVTAVVSSTPSVVMSTVAQGVSTSAIKMASTRLPSPKSLVSAPTQILAQFPKQHQQSPKQQLYQVQQQTQQQVAQPSPVSHQQQPQQSPLPPGIKPTIQIKQESGVKIITQQVQPSKILPKPVTATLPTSSNSPIMVVSSNGAIMTTKLVTTPTGTQATYTRPTVSPSIGRMAATPGAATYVKTTSGSIITVVPKSLATLGGKIISSNIVSGTTTKITTIPMTSKPNVIVVQKTTGKGTTIQGLPGKNVVTTLLNAGGEKTIQTVPTGAKPAILTATRPITKMIVTQPKGIGSTVQPAAKIIPTKIVYGQQGKTQVLIKPKPVTFQATVVSEQTRQLVTETLQQASRVAEAGNSSIQEGKEEPQNYTDSSSSSTESSQSSQDSQPVVHVIASRRQDWSEHEIAMETSPTIIYQDVSSESQSATSTIKALLELQQTTVKEKLESKPRQPTIDLSQMAVPIQMTQEKRHSPESPSIAVVESELVAEYITTERTDEGTEVAFPLLVSHRSQPQQPSQPQRTLLQHVAQSQTATQTSVVVKSIPASSPGAITHIMQQALSSHTAFTKHSEELGTEEGEVEEMDTLDPQTGLFYRSALTQSQSAKQQKLSQPPLEQTQLQVKTLQCFQTKQKQTIHLQADQLQHKLPQMPQLSIRHQKLTPLQQEQAQPKPDVQHTQHPMVAKDRQLPTLMAQPPQTVVQVLAVKTTQQLPKLQQAPNQPKIYVQPQTPQSQMSLPASSEKQTASQVEQPIITQGSSVTKITFEGRQPPTVTKITGGSSVPKLTSPVTSISPIQASEKTAVSDILKMSLMEAQIDTNVEHMIVDPPKKALATSMLTGEAGSLPSTHMVVAGMANSTPQQQKCRESCSSPSTVGSSLTTRKIDPPAVPATGQFMRIQNVGQKKAEESPAEIIIQAIPQYAIPCHSSSNVVVEPSGLLELNNFTSQQLDDEETAMEQDIDSSTEDGTEPSPSQSSAERS [EMSY] | 0.0269 | 50.6 °C | -0.0948 | 44.6 °C
3 | MQTSSSRSVHLSEWQKNYFAITSGICTGPKADAYRAQILRIQYAWANSEISQVCATKLFKKYAEKYSAIIDSDNVESGLNNYAENILTLAGSQQTDSDKWQSGLSINNVFKMSSVQKMMQAGKKFKDSLLEPALASVVIHKEATVFDLPKFSVCGSSQESDSLPNSAHDRDRTQDFPESNRLKLLQNAQPPMVTNTARTCPTFSAPVGESATAKFHVTPLFGNVKKENHSSAKENIGLNVFLSNQSCFPAACENPQRKSFYGSGTIDALSNPILNKACSKTEDNGPKEDSSLPTFKTAKEQLWVDQQKKYHQPQRASGSSYGGVKKSLGASRSRGILGKFVPPIPKQDGGEQNGGMQCKPYGAGPTEPAHPVDERLKNLEPKMIELIMNEIMDHGPPVNWEDIAGVEFAKATIKEIVVWPMLRPDIFTGLRGPPKGILLFGPPGTGKTLIGKCIASQSGATFFSISASSLTSKWVGEGEKMVRALFAVARCQQPAVIFIDEIDSLLSQRGDGEHESSRRIKTEFLVQLDGATTSSEDRILVVGATNRPQEIDEAARRRLVKRLYIPLPEASARKQIVINLMSKEQCCLSEEEIEQIVQQSDAFSGADMTQLCREASLGPIRSLQTADIATITPDQVRPIAYIDFENAFRTVRPSVSPKDLELYENWNKTFGCGK [FIGNL1] | -0.219 | 48.6 °C | -0.0197 | 
4 | MRRFKRKHLTAIDCQHLARSHLAVTQPFGQRWTNRDPNHGLYPKPRTKRGSRGQGSQRCIPEFFLAGKQPCTNDMAKSNSVGQDSCQDSEGDMIFPAESSCALPQEGSAGPGSPGSAPPSRKRSWSSEEESNQATGTSRWDGVSKKAPRHHLSVPCTRPREARQEAEDSTSRLSAESGETDQDAGDVGPDPIPDSYYGLLGTLPCQEALSHICSLPSEVLRHVFAFLPVEDLYWNLSLVCHLWREIISDPLFIPWKKLYHRYLMNEEQAVSKVDGILSNCGIEKESDLCVLNLIRYTATTKCSPSVDPERVLWSLRDHPLLPEAEACVRQHLPDLYAAAGGVNIWALVAAVVLLSSSVNDIQRLLFCLRRPSSTVTMPDVTETLYCIAVLLYAMREKGINISNRIHYNIFYCLYLQENSCTQATKVKEEPSVWPGKKTIQLTHEQQLILNHKMEPLQVVKIMAFAGTGKTSTLVKYAEKWSQSRFLYVTFNKSIAKQAERVFPSNVICKTFHSMAYGHIGRKYQSKKKLNLFKLTPFMVNSVLAEGKGGFIRAKLVCKTLENFFASADEELTIDHVPIWCKNSQGQRVMVEQSEKLNGVLEASRLWDNMRKLGECTEEAHQMTHDGYLKLWQLSKPSLASFDAIFVDEAQDCTPAIMNIVLSQPCGKIFVGDPHQQIYTFRGAVNALFTVPHTHVFYLTQSFRFGVEIAYVGATILDVCKRVRKKTLVGGNHQSGIRGDAKGQVALLSRTNANVFDEAVRVTEGEFPSRIHLIGGIKSFGLDRIIDIWILLQPEEERRKQNLVIKDKFIRRWVHKEGFSGFKRYVTAAEDKELEAKIAVVEKYNIRIPELVQRIEKCHIEDLDFAEYILGTVHKAKGLEFDTVHVLDDFVKVPCARHNLPQLPHFRVESFSEDEWNLLYVAVTRAKKRLIMTKSLENILTLAGEYFLQAELTSNVLKTGVVRCCVGQCNNAIPVDTVLTMKKLPITYSNRKENKGGYLCHSCAEQRIGPLAFLTASPEQVRAMERTVENIVLPRHEALLFLVF [FBXO18] | -0.0335 | 52.4 °C | -0.21 | 51.7 °C
5 | MRRYLRVVVLCVACGFCSLLYAFSQLAVSLEEGTGGGGGKPQAAVASWLAGGGRGAVRGAGVAGPAAHPGVSDRCKDFSLCYWNPYWMLPSDVCGMNCFWEAAFRYSLKIQPVEKMHLAVVACGERLEETMTMLKSAIIFSIKPLQFHIFAEDQLHHSFKGRLDNWSFLQTFNYTLYPITFPSENAAEWKKLFKPCASQRLFLPLILKEVDSLLYVDTDILFLRPVDDIWSLLKKFNSTQIAAMAPEHEEPRIGWYNRFARHPYYGKTGVNSGVMLMNMTRMRRKYFKNDMTTVRLQWGDILMPLLKKYKLNITWGDQDLLNIVFFHNPESLFVFPCQWNYRPDHCIYGSNCQEAEEGGIFILHGNRGVYHDDKQPAFRAVYEALRNCSFEDDNIRSLLKPLELELQKTVHTYCGKIYKIFIKQLAKSVRDRYARSPKEK [GXYLT1] | 0.0753 |  | 0.171 | 53.9 °C
6 | MSAGGSARKSTGRSSYYYRLLRRPRLQRQRSRSRSRTRPARESPQERPGSRRSLPGSLSEKSPSMEPSAATPFRVTGFLSRRLKGSIKRTKSQPKLDRNHSFRHILPGFRSAAAAAADNERSHLMPRLKESRSHESLLSPSSAVEALDLSMEEEVVIKPVHSSILGQDYCFEVTTSSGSKCFSCRSAAERDKWMENLRRAVHPNKDNSRRVEHILKLWVIEAKDLPAKKKYLCELCLDDVLYARTTGKLKTDNVFWGEHFEFHNLPPLRTVTVHLYRETDKKKKKERNSYLGLVSLPAASVAGRQFVEKWYPVVTPNPKGGKGPGPMIRIKARYQTITILPMEMYKEFAEHITNHYLGLCAALEPILSAKTKEEMASALVHILQSTGKVKDFLTDLMMSEVDRCGDNEHLIFRENTLATKAIEEYLKLVGQKYLQDALGEFIKALYESDENCEVDPSKCSAADLPEHQGNLKMCCELAFCKIINSYCVFPRELKEVFASWRQECSSRGRPDISERLISASLFLRFLCPAIMSPSLFNLLQEYPDDRTARTLTLIAKVTQNLANFAKFGSKEEYMSFMNQFLEHEWTNMQRFLLEISNPETLSNTAGFEGYIDLGRELSSLHSLLWEAVSQLEQSIVSKLGPLPRILRDVHTALSTPGSGQLPGTNDLASTPGSGSSSISAGLQKMVIENDLSGLIDFTRLPSPTPENKDLFFVTRSSGVQPSPARSSSYSEANEPDLQMANGGKSLSMVDLQDARTLDGEAGSPAGPDVLPTDGQAAAAQLVAGWPARATPVNLAGLATVRRAGQTPTTPGTSEGAPGRPQLLAPLSFQNPVYQMAAGLPLSPRGLGDSGSEGHSSLSSHSNSEELAAAAKLGSFSTAAEELARRPGELARRQMSLTEKGGQPTVPRQNSAGPQRRIDQPPPPPPPPPPAPRGRTPPNLLSTLQYPRPSSGTLASASPDWVGPSTRLRQQSSSSKGDSPELKPRAVHKQGPSPVSPNALDRTAAWLLTMNAQLLEDEGLGPDPPHRDRLRSKDELSQAEKDLAVLQDKLRISTKKLEEYETLFKCQEETTQKLVLEYQARLEEGEERLRRQQEDKDIQMKGIISRLMSVEEELKKDHAEMQAAVDSKQKIIDAQEKRIASLDAANARLMSALTQLKERYSMQARNGISPTNPTKLQITENGEFRNSSNC [DAB2IP] | 0.0598 | 51 °C | 0.117 | 49.5 °C
7 | MSAHSMLCERIAIAKELIKRAESLSRSRKGGIEGGAKLCSKLKAELKFLQKVEAGKVAIKESHLQSTNLTHLRAIVESAENLEEVVSVLHVFGYTDTLGEKQTLVVDVVANGGHTWVKAIGRKAEALHNIWLGRGQYGDKSIIEQAEDFLQASHQQPVQYSNPHIIFAFYNSVSSPMAEKLKEMGISVRGDIVAVNALLDHPEELQPSESESDDEGPELLQVTRVDRENILASVAFPTEIKVDVCKRVNLDITTLITYVSALSYGGCHFIFKEKVLTEQAEQERKEQVLPQLEAFMKDKELFACESAVKDFQSILDTLGGPGERERATVLIKRINVVPDQPSERALRLVASSKINSRSLTIFGTGDTLKAITMTANSGFVRAANNQGVKFSVFIHQPRALTESKEALATPLPKDYTTDSEH [C7ORF25] | 0.0164 | 50 °C | 0.0643 | 50.1 °C
